According to PMC9820559, “Investigation of the Fuzzy Complex between RSV Nucleoprotein and Phosphoprotein to Optimize an Inhibition Assay by Fluorescence Polarization” (International Journal of Molecular Sciences, 2022):
Ends that are not written are not given here. * marks the point of attachment. dicyano BODIPY FL = CC1=CC(C)=[N+]2C1=Cc1ccc(CCC(=O)*)n1[B-]2(C#N)C#N; FITC = O=C1OC2(c3ccc(O)cc3Oc3cc(O)ccc32)c2ccc(NC(=S)*)cc21

B1: BCN_(11EE) (dicyano BODIPY FL-labelled RSV P 11-mer, Ser232Glu/Ser237Glu) (peptide)
peptide: {dicyano BODIPY FL}-DEDNDLELEDF
notes: C-terminal 11 residues of RSV phosphoprotein P with phosphomimetic glutamates at 232 and 237; source: synthetic peptide (Fmoc/tBu solid phase, dicyano BODIPY FL coupled on resin, RP-HPLC purified)
B2: F_(11EE) (FTU-labelled RSV P 11-mer, Ser232Glu/Ser237Glu) (peptide)
peptide: {FITC}-DEDNDLELEDF
notes: C-terminal 11 residues of RSV phosphoprotein P with phosphomimetic glutamates at 232 and 237; source: synthetic peptide (Fmoc/tBu solid phase), FITC coupled in solution, HPLC purified
B3: P11 (unlabeled RSV P C-terminal 11-mer) (peptide)
peptide: DSDNDLSLEDF
notes: unlabeled peptide from which F11 was made; C-terminal 11 residues of RSV phosphoprotein P; also called P_(11SS); source: bought: GeneCust (synthetic peptide, >95% purity)
B4: P7E (unlabeled RSV P 7-mer, Ser237Glu) (peptide)
peptide: DLELEDF
notes: unlabeled peptide from which F7E was made; C-terminal 7 residues of RSV phosphoprotein P; source: synthetic peptide (Fmoc/tBu solid phase, RP-HPLC purified)
B5: P9E (unlabeled RSV P 9-mer, Ser237Glu) (peptide)
peptide: DNDLELEDF
notes: unlabeled peptide from which F9E was made; C-terminal 9 residues of RSV phosphoprotein P; source: synthetic peptide (Fmoc/tBu solid phase, RP-HPLC purified)
B6: BCN_(10EE) (dicyano BODIPY FL-labelled RSV P 10-mer, Ser232Glu/Ser237Glu) (peptide)
peptide: {dicyano BODIPY FL}-EDNDLELEDF
notes: C-terminal 10 residues of RSV phosphoprotein P with phosphomimetic glutamates at 232 and 237; also called B_(10EE); source: synthetic peptide (Fmoc/tBu solid phase, dicyano BODIPY FL coupled on resin, RP-HPLC purified)
B7: P5E (unlabeled RSV P 5-mer, Ser237Glu) (peptide)
peptide: ELEDF
notes: unlabeled peptide from which F5E was made; C-terminal 5 residues of RSV phosphoprotein P; source: synthetic peptide (Fmoc/tBu solid phase, RP-HPLC purified)
B8: BCN8E (dicyano BODIPY FL-labelled RSV P 8-mer, Ser237Glu) (peptide)
peptide: {dicyano BODIPY FL}-NDLELEDF
notes: C-terminal 8 residues of RSV phosphoprotein P with a phosphomimetic glutamate at 237; also called B8E; source: synthetic peptide (Fmoc/tBu solid phase, dicyano BODIPY FL coupled on resin, RP-HPLC purified)

Experiments:
Conditions in all cases: both partners purified
[1] = target: T1, RSV N-RNA complex (full-length N protein in ring-shaped complexes with bacterial RNA) (human respiratory syncytial virus, UniProt P03418 1-391); experiment: fluorescence polarisation; 200 nM dicyano BODIPY FL-labelled BCNn peptide, N-RNA varied; 20 mM Tris pH 8.0 with 100 mM NaCl, 0.01% Brij-35; 20 °C; single site model
T1 construct: human RSV nucleoprotein N, full length; concentrations are of N protomer; also called N-RNA rings; source: in lysate for the co-purification; purified (glutathione-Sepharose, thrombin, Superdex 200) as N-RNA complex; copies: 10-11
T1 sequence (looked up): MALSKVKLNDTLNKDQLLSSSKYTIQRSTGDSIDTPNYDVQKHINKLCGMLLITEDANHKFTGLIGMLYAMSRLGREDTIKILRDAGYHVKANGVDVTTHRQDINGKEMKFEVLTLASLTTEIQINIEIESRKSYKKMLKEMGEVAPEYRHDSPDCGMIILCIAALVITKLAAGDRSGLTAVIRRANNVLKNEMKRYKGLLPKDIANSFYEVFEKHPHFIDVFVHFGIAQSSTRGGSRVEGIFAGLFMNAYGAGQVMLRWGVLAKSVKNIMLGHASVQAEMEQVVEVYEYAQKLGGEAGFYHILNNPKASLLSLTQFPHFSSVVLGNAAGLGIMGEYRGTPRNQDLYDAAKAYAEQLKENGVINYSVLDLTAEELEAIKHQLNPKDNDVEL

[2] = target: T1, RSV N-RNA complex (full-length N …); experiment: fluorescence polarisation; 200 nM dicyano BODIPY FL-labelled BCNn peptide, N-RNA varied; 20 mM Tris pH 8.0 without salt, 0.01% Brij-35; 20 °C; single site model
[3] = target: T1, RSV N-RNA complex (full-length N …); experiment: fluorescence polarisation; 200 nM FTU-labelled Fn peptide, N-RNA varied (up to 40 µM N); 20 mM Tris pH 8.0 without salt, 0.01% Brij-35; 20 °C; 30 min incubation; single site model, or with a linear contribution where marked (*)
[4] = target: T1, RSV N-RNA complex (full-length N …); experiment: fluorescence polarisation; competition: unlabeled P peptide varied against 200 nM F11 on 10 µM N-RNA; Tris pH 8 without salt; Hill equation; Ki from the IC50-to-Ki server
[5] = target: T1, RSV N-RNA complex (full-length N …); experiment: fluorescence polarisation; competition: unlabeled P7E varied against 200 nM F7E on 10 µM N-RNA; Tris pH 8 without salt; Hill equation; Ki from the IC50-to-Ki server
[6] = target: T1, RSV N-RNA complex (full-length N …); experiment: fluorescence polarisation; competition: unlabeled P5E varied against 200 nM F5E on 10 µM N-RNA; Tris pH 8 without salt; Hill equation; Ki from the IC50-to-Ki server

| Binder | Kd [1] | Kd [2] | IC50 [4] | Ki [4] | other results |
| --- | --- | --- | --- | --- | --- |
| B1 | 260 ± 40 nM | 280 ± 70 nM |  |  |  |
| B2 |  |  |  |  | Kd [3]: 380 ± 120 nM |
| B3 |  |  | 86 ± 7 µM | 34 µM |  |
| B4 |  |  | 180 ± 11 µM | 75 µM | IC50 [5]: 376 ± 26 µM; Ki [5]: 74 µM |
| B5 |  |  | 66 ± 6 µM | 25 µM |  |
| B6 | 1240 ± 310 nM | 160 ± 30 nM |  |  |  |
| B7 |  |  |  |  | IC50 [6]: 433 ± 21 µM; Ki [6]: 158 µM |
| B8 | 7100 ± 100 nM | 1430 ± 80 nM |  |  |  |
